We go through ten substances from publication PMC5818551.

“And” between values parts separate entries of the source, which are not always exact repeats. Equal entries are not always repeated.

In assay [1] the target is gephyrin E-domain (GephE). Kind of assay: ITC. (In ITC the heat of successive injections is recorded.)
Assay [2] concerns the target full-length gephyrin rC4. The assay is described as follows: ITC.
Assay [3] deals with full-length gephyrin rC4.
Assay [4] has as its target full-length gephyrin rC4. The assay is described as follows: cross-linking; EDC cross-linking of purified full-length gephyrin and βL-wt, 6% SDS-PAGE with Coomassie staining, trimer band extracted, tryptic digestion and LC-MS/MS peptide mass fingerprinting.
The target of assay [5] is gephyrin E-domain (GephE). The assay is described as follows: not stated; data not shown; physiologic salt concentrations and pH 7.4-8.0.

For “GlyR β-loop wild type, residues 378-426 of the GlyRβ subunit (from UniProt P20781 400-448) (peptide)”, the dH in assay [1] was -16.1 kcal/mol.

As to “GlyR β-loop βL-HI, residues 394-426 (from UniProt P20781 416-448) (peptide)”, in the assay with full-length gephyrin rC4 [2], the dH was -21.5 kcal/mol.

Consider “GlyR β-loop βL-LO, residues 378-413 (from UniProt P20781 400-435) (peptide)”, for which the dH in the assay with full-length gephyrin rC4 [2] is -11.8 kcal/mol.

As to “GlyRβ-D407P/F408G: mEos4b-tagged full-length human GlyRβ with D407P and F408G (from UniProt P48167-1 23-497) (receptor)”, in the assay with full-length gephyrin rC4 [3], the Deff of extrasynaptic trajectories above the threshold of 0.02 µm^2/s (sptPALM, rat spinal cord neurons), Q1/Q2/Q3; value: the median Q2 was 0.09 µm^2 · s^−1; the Deff of synaptic trajectories above the threshold of 0.02 µm^2/s (sptPALM, rat spinal cord neurons), Q1/Q2/Q3; value: the median Q2 was determined as 0.04 µm^2 · s^−1; the explored area of extrasynaptic trajectories above the threshold of 0.02 µm^2/s (sptPALM, rat spinal cord neurons), Q1/Q2/Q3; value: the median Q2 is 0.00152 µm^2; the explored area of synaptic trajectories above the threshold of 0.02 µm^2/s (sptPALM, rat spinal cord neurons), Q1/Q2/Q3; value: the median Q2 worked out at 0.00086 µm^2.

In the assay with full-length gephyrin rC4 [3], “GlyRβ-HI: mEos4b-tagged full-length human GlyRβ with deletion ΔV378-L393 (from UniProt P48167-1 23-497) (receptor)” yielded a Deff of extrasynaptic trajectories above the threshold of 0.02 µm^2/s (sptPALM, rat spinal cord neurons), Q1/Q2/Q3; value: the median Q2 of 0.05 µm^2 · s^−1; a Deff of synaptic trajectories above the threshold of 0.02 µm^2/s (sptPALM, rat spinal cord neurons), Q1/Q2/Q3; value: the median Q2 of 0.04 µm^2 · s^−1; an explored area of extrasynaptic trajectories above the threshold of 0.02 µm^2/s (sptPALM, rat spinal cord neurons), Q1/Q2/Q3; value: the median Q2 of 0.00096 µm^2; an explored area of synaptic trajectories above the threshold of 0.02 µm^2/s (sptPALM, rat spinal cord neurons), Q1/Q2/Q3; value: the median Q2 of 0.00077 µm^2.

In the assay with full-length gephyrin rC4 [3], “GlyRβ-geph^-: mEos4b-tagged full-length human GlyRβ with F398A/I400A (from UniProt P48167-1 23-497) (receptor)” had a Deff of extrasynaptic trajectories above the threshold of 0.02 µm^2/s (sptPALM, rat spinal cord neurons), Q1/Q2/Q3; value: the median Q2 of 0.11 µm^2 · s^−1; a Deff of synaptic trajectories above the threshold of 0.02 µm^2/s (sptPALM, rat spinal cord neurons), Q1/Q2/Q3; value: the median Q2 of 0.09 µm^2 · s^−1; an explored area of extrasynaptic trajectories above the threshold of 0.02 µm^2/s (sptPALM, rat spinal cord neurons), Q1/Q2/Q3; value: the median Q2 of 0.00183 µm^2; an explored area of synaptic trajectories above the threshold of 0.02 µm^2/s (sptPALM, rat spinal cord neurons), Q1/Q2/Q3; value: the median Q2 of 0.00151 µm^2.

For the substance “core βL peptide, residues 394-413 (from UniProt P20781 416-435)”, the dH in the assay with full-length gephyrin rC4 [2] is -11 kcal/mol.

Consider “full-length gephyrin rC4 (natural protein)”, for which the stoichiometry N (as a rule, a count of units in the complex or per binding partner) with full-length gephyrin rC4 [4] is 2 and 3.

Regarding “gephyrin E-domain (GephE) (domain or fragment)”, the stoichiometry N in assay [5] was 2.

On to “mEos4b-tagged full-length human GlyRβ subunit, wild type (from UniProt P48167-1 23-497) (receptor)”, for which, in the assay with full-length gephyrin rC4 [3], the Deff of extrasynaptic trajectories above the threshold of 0.02 µm^2/s (sptPALM, rat spinal cord neurons), Q1/Q2/Q3; value: the median Q2 worked out at 0.05 µm^2 · s^−1; the Deff of synaptic trajectories above the threshold of 0.02 µm^2/s (sptPALM, rat spinal cord neurons), Q1/Q2/Q3; value: the median Q2 turned out to be 0.04 µm^2 · s^−1; the explored area of extrasynaptic trajectories above the threshold of 0.02 µm^2/s (sptPALM, rat spinal cord neurons), Q1/Q2/Q3; value: the median Q2 came to 0.00091 µm^2; the explored area of synaptic trajectories above the threshold of 0.02 µm^2/s (sptPALM, rat spinal cord neurons), Q1/Q2/Q3; value: the median Q2 amounted to 0.00073 µm^2.
